B1: TPR t1 (parent)
chain: GACCAAUCUGCCCUCAGAGCUCGAGAACAUCUUCGGAUGCAGAGGAGGCAGGCUUCGGUGGCGCGAUAGCGCCAACGUCCUCAACCUCCAAUGCAUCCCACCACAUGAUGAUGCCUGAAGAGCCUUGGUUUUUUG

Variants of: B1
Assay: polymerase ribozyme fitness, log enrichment relative to wild type (log ratio); higher = more active; in vitro selection for triplet polymerase activity
Procedure, shortened: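 Each subunit of a heterodimeric triplet polymerase ribozyme was mutagenized into a library by PCR, transcribed, and subjected to one round of in vitro selection, run in triplicate. Libraries were annealed with a biotinylated primer, the partner subunit and triplets, incubated frozen at −7 °C, and extended constructs were gel-excised, captured on streptavidin beads and recovered by RT-PCR. Input and output libraries were sequenced on Illumina, keeping genotypes with ≥10 input reads and ≥1 read per output. Fitness is log base 2 of genotype enrichment divided by wild-type enrichment, from inverse-variance-weighted replicate averages.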

In order of rising “polymerase ribozyme fitness (log ratio)” value:
1. GACCAAUCUGCCCUCAGAGCACGAGAACAUCUUCGGAUGCAGAGGAGGCAGGCUUGGGUGGCGCGAUAGCGCAAACGUCCUCAACCUCCAAUGCAUCCGACCACAUGAUGAUGCCUGAAAAGCCUUGGUUCUUUG [U21A C56G C73A C99G G120A U131C]  -7.97
2. GACCAAUCUGCCCUCAGAGCACGAGACCAUCUUCGGAUGCAGAGGAGGCAGGCUUCGGUGGCGCGAUAGCGCCAACGGCCUCAUCCUCCAAUGCAUCCCACCACAUGAUGAUGACUGAAGAGCCUUGGUUUUUUG [U21A A27C U78G A84U C114A]  -6.87
3. GACCAAUCUGCCCUCAGAGCACGAGACCAUCGUCGGAUGCAGAGGAGGCAGGCUUCGGUGGCGCGAUAGCACCAACGUCCUCAACCUCCAAUGCAUCCCACCACAUGAUGACGCCUGAAGAGCCUUGGUUUUUUG [U21A A27C U32G G71A U112C]  -5.9
4. GACCAAUCUGCCCUCAGAGCCCGAGAUCAUCUUCGCAUGCAGAGGAGGCAGGCUUCGGUGGCGCGAUAGCGCCAACGUCCUCAACCUCCAAUGCAUCCCACCACAUGAUGUUGCCUGAAGAGCCUUGGUUUUUUG [U21C A27U G36C A111U]  -4.98
5. GACCAAUCUGCCCUCAGAGCACGAGAACAUCUUCGGAUGCAGAGGAGGCAGGGGUCGGUGGCGCGAUAGCGCCAACGUCCUCAACCACCAAUGCAUCCCACCACAUGAUGAUGCCUGAAGAGCCUUGGUUUUUUG [U21A C53G U54G U87A]  -4.55
6. GACCAAUCUGCCCUCAGAGCACGAGAACAUCUUCGGAUGCAGAGAAGGCAGGCUUCGGGGGCGCGAUAGCACCAACGUCCUCAACCUCCAAUGCAUCCCACCACAUGAUGAUGCCUGAAGAGCCUUGGUUUUUUG [U21A G45A U59G G71A]  -4.25
7. GACCAAUCUGCCCUCAGAGCACGAGAACAUCUUCGGAUGCCGAGGAGGCAGGCUUCGGUGGCGCGAUAGCGCCAACGUCCUCAACCUCCCAUACAUCCCACCACAUGAUGAUGCCUGAAGAGCCUUGGUUUUUUG [U21A A41C A90C G93A]  -4.16
8. GACCAAUCUGCCCUCAGAGCCCGAGAACAUCUUCGGCUGCAGAGGAGGCAGGCUUCGGUGGCGCGAUAGCGCCAACGUCCACAACCUCCAAUGCAUCCCACCACAUGAUGAUGCCUGAAGAGCCUUGGUUUUUUG [U21C A37C U81A]  -3.15
9. GACCAAUCUGCCCUCAGAGCACGAGAACCUCUUCGGAUGCAGAGGAGGCAGGCUUCGGUGGCGCGAUAGCGCCAACGUCCUCAACCUCCAAUGCAUCCCACCACAUGAUGAUGCCUGAAGAGCCUUGGUUUUUUG [U21A A29C]  -3.14
10. GACCAAUCUGCCCUCAGAGCACGAGGACAUCUUCGGAUGGAGAGGAGGAAGGCUUCGGUGGCGCGAUAGCGCCAACGUCCUCAACCUCCAAUGCAUCCCACCACAUGAUGAUGCCUGAAGAGCCUUGGUUUUUUG [U21A A26G C40G C49A]  -3.04
11. GACCAAUCUGCCCUCAGAGCCCGAGAACAUCUUCGGGUGCAGAGGAGGCAGGCUUCGGUGGAGCGAUAGCGCCAACGUCCUCAACCUCCAAUGCAUCCCACCACAUGAUGAUGCCUAAAGAGCCUUGGUUUUUUG [U21C A37G C62A G117A]  -3.01
12. GACCAAUCUGCCCUCAGAGCACGAGAACAUCUUCGGAAGCAAAAGAGGCAGGCUGCGGUGGCGCGAUAGCGCCAACGUCCUCAACCUCCAAUGCAUCCCACCACAUGAUGAUGCCUGAAGAGCCUUGGUUUUUUG [U21A U38A G42A G44A U55G]  -2.99
13. GACCAAUCUGCCCUCAGAGUUCGAGAACAUCUUCGGAUGCAGAGGAGGCAGGCUUCGGUGGCGCGAUAGCGCCAACGUCCUCAACCUCCAAUGCAUCCCACCACAUGAUGAUGCCUGAAGAGCCUUGGAUUUUUG [C20U U129A]  -2.67
14. GACCAAUCUGCCCUCAGAGCACGAGAACAUCUUCGGAUUCAGAGGAGGCAGGCUUCGGUGGAGCGAUAGCGCCAACGUCCUCAACCUCCAAUGCAUCCCACCACAUGAUGAUGCCUGAAGAGCCUUGGUUUUUUG [U21A G39U C62A]  -2.62
15. GACCAAUCUGCCCUCAGAGCACGAGAACAUCUUCGGAUGCAGAGGAGGCAGGCUUCUGUGGCGCGAUAGCGCCAACGUCCUCAAUCUCCAAUGCAUCCCACCACAUGAUGAUGCCUGAAUAGCCUUGGUUUUUUG [U21A G57U C85U G120U]  -2.48
16. GACCAAUCUGCCCUCAGAGCACGAGAACAUCUUCGGAUGCAGAGGAGGCAGGUUUCGGUGGCGCGAUAGCGCCAACGUCCUCAAUCUCCAAUGCAUCCCACCACAUGAUGAUGCCUGAAGAGCCUUGGUUUUUUG [U21A C53U C85U]  -2.21
17. GACCAAUCUGCCCUCAGAGCACGAGAACAUCUUCGGAUGCAGAGGAGGCAGGCUUCGGUGGCGCGAUAGCACCAACGUCCUCAACCUUCAAUACAUCCCACCACAUGAUGAUGCCUGAAGAGCCUUGGUUUUUUG [U21A G71A C88U G93A]  -2.14
18. GACCAAUCUGCCCUCAGAGCACGAGAACAUCUUCGGAUUCAGAGGAGACAGGCUUCGGUGGCGCGAUAGCGCCUACGGCCUCAACCUCCAAUGCAUCCCACCACAUGAUGAUGCCUGAAGAGCCUUGGUUUUUUG [U21A G39U G48A A74U U78G]  -2.09
19. GACCAAUCUGCCCUCAGAGCACGAGAACAUCUUCGGAUGCAGAGGAGGCAGGCUUCGGUGGCGCGAUAGCGGCAUCGUCCUCAAUCUCCAAUGCAUCCCACCACAUGAUGAUGCCUGAAGAGCCUUGGUUUUUUG [U21A C72G A75U C85U]  -1.63
20. GACCAAUCUGCCCUCAGAGCCCGAGAACAUCUUCGGAUGCGGAAGAGGCAGGCUUUGGUGGCGCGAUAGCGCCAACGUCCUCAACCUCCAAUGCAUCUCACCACAUGAUGAAGCCUGAAGAGCCUUGGUUUUUUG [U21C A41G G44A C56U C98U U112A]  -1.55
21. GACCAAUCUGCCCUCAGAGCACGAGAACAUCUUCGGAUGCAGAGGAGGCAGGCUUCGGUGGCGCGAUAGCGCCAACGUCCUCAACCUCCAAUGCAUCCCACCACAUGAUGAUGCCUUAAGAGCCUUGGUUUUUUG [U21A G117U]  -1.55
22. GACCAAUCUGCCCUCAGAGCACGAGAACAUCUUCGGAUUCAGAGGAGGCAGGCUUCGGUGGCGCGAUAGCGCCAACGUCCUCAACCUCCAAUGCAUCCCACCACAUGAUGAUGCCUGAAGAGCCUUGGUUUUUUG [U21A G39U]  -1.5
23. GACCAAUCUGCCCUCAGAGCACGAGAACAUCUUCGGAUGGAGAGGAGGCAGGCUUCGGUGGCGCGAUAGCGCCAACGUCCUCAACCUCCAAUGCAUCCCACCACAUGAUGAUGCCUGAAGAGCCAUGGUUUUUUG [U21A C40G U125A]  -1.07
24. GACCAAUCUGCCCUCAGAGCACGAGAACAUCUUCGGAUGCAGAGGAGGCAGGCUUCGGUGGCCCGAUAGCGCCAACGUCCUCAACCUCCAAUGCAUCCCACCACAUGAUGAUGCCUGAAGAGCCUUGGUUUUUUG [U21A G63C]  -0.995
25. GACCAAUCUGCCCUCAGAGCACGAGAACAUCUUCGGAUGCAGAGGAGGCAGGGUUCGGUGGCGUGAUAGCGCCAACGUCCUCAACCUCCAAUGCAUCCCACCACACGAUGAUGCCUGAAGAGCCUUGGUUUUUUG [U21A C53G C64U U106C]  -0.936
26. GACCAAUCUGCCCUCAGAGCACGAGAACAUCUUCGGAUGCAGAGGAGGCAGGCUUCGGUGGCGCGAUAGCGCCAACGUCCUCAACCUCCAAUGCAUCCCACCACAUGAUGAUGCCUGAAGAGCCUUGGUUUUUUU [U21A G135U]  -0.915
27. GACCAAUCUGCCCUCAGAGCCCGAGAACUUCUUCGGAUGCAGAGGAGGCAGGCUUCGGUGGCGCGAUAGCGCCAACGUCCUCACCCUCCAAUGCAUCCCACCACAUGAUGAAGCCUGAGCAGCCUUGGUUUUUUG [U21C A29U A84C U112A A119G G120C]  -0.885
28. GACCAAUCUGCCCUCAGAGCCCGAGAGCAUCUUCGGAUGCAGAGGAGGCAGGCUUCGGUGGCGCGAUAGCGCCAACGUCCUCAACCUCCAAUGCAUCCCACCACAUGAUGAUGCCUGAAGAGGCUUGGUUUUUUG [U21C A27G C123G]  -0.817
29. GACCAAUCUGCCCUCAGAGCCCGAGAACAUCUUCGGAUGCUGAGGAGGCAGGCUUCGGUGGCGCGAUAGCGCCAACGUCCUCAACCUCCAAUGCAUCCCACCACAUGAUGAUGCCUGAAAAGCCUUGGUUUUUUG [U21C A41U G120A]  -0.65
30. GACCAAUCUGCCCUCAGAGCACGAGAACAUCUUCGGAUGCAGAGGAGGCCGGCUUCGGUGGCGCGAUAGCGCCAACGUCCUCAACCUCCAAUGCAUCCCACCACAUGAUGAUGCCUGAAGAGCCUUGGUUUUUUG [U21A A50C]  -0.532
31. GACCAAUCUGCCCUCAGAGCACGAGAACAUCUUCGGAUGCAGAGGAGGCAGGCUUCGGUGGCGCGAUAGCGCCAACGUCCUCAACCUCCAAUGCAUCCCACCACAUGAUGAUGCCUGAAGAGCCUUGGUAUUUUG [U21A U130A]  -0.5
32. GACCAAUCUGCCCUCAGAGCACGAGAACAUCUUCGGAUGCAGAGGAGGCAGGCUUCGGUUGCGCGAUAGCGCCAACGUCCUCAACCUCCAAUGCAUCCCACCACAUGAUGAUGCCUGAAGAGCCUUGGUUUUUUG [U21A G60U]  -0.289
33. GACCAAUCUGCCCUCAGAGCACGAGAACAUCUUCGGAUGCAGAGGAGGCAGGCUUCGGUGGCGCGAUAGCGCCAACGUCCUCAACCUCCAAUGCAUCCCACCACAAGAUGAUGCCUGAAGAGCCUUGGUUUAUUG [U21A U106A U132A]  -0.182
34. GACCAAUCUGCCCUCAGAGCACGAGAACAUCUUCGGAUGCAGAGGAGGCAGGCUUCGGUAGCGCGAUAGCGCCAACGUCCUCAACCUCCGAUGCAUCCCACCACAUGAUGAUGCCUGAAGAGCCUUGGUUUUUUG [U21A G60A A90G]  -0.182
35. GACCAAUCUGCCCUCAGAGCCCGAGAACAUCUUCGGAUGCAGAGGAGGCAGGCUUCGGUGGCGCGAUAGCGCCUACGUCCUCAACCUCCAAUGCAUCCCACCACAUGAUGAUGCCUGAAAAGCCUUGGUUUUUUG [U21C A74U G120A]  -0.17
36. GACCAAUCUGCCCUCAGAGCACGAGAACAUCUUCGGAUGCAGAGGAGGCAGGCUUCGGUGGCGCGAUAGCGCCAAUGUCCUCAACCUCCAAUGCAUCCCACCACAUGAUGAUGCCUGAAGAGCCUUGGUUUUUUG [U21A C76U]  -0.123
37. GACCAAUCUGCCCUCAGAGCACGAGAACAUCUUCGGAUGCAGAGGAGGCAGGCUUCGGUUGCGCGAUAGCGCCAACGUCCUCAACCUCCGAUGCAUCCCACCACAUGAUGAUGCCUGAAGAGCCUUGGUUUUUUG [U21A G60U A90G]  0.0218
38. GACCAAUCUGCCCUCAGAGCACGAGAACAUCUUCGGAUGCAGAGGAGGCAGGCUUCGGUGGCGCGAUAGCGCCAACGUCCUCAACCUCCAAUGCAUCCCACCACAUGAUGAUGCCUGAAGAGCCUUGGUGUUUUG [U21A U130G]  0.0378
39. GACCAAUCUGCCCUCAGAGCACGAGAACAUCUUCGGAUGCAGAGGAGGAAGGCUUCGGUGGCGCGAUAGCGCAAACGUCCUCAACCUCCAAUGCAUCCCACCACAUGAUGAUGCAUGAAGAGCCUUGGUGUUUUG [U21A C49A C73A C115A U130G]  0.139
40. GACCAAUCUGCCCUCAGAGUUCGAGAACAUCUUCGGAUGCAGAGGAGGCAGGCUUCGGUGGCGCGAUAGCGCCAACGUCCUCAACCUCCAAUGCAUCCCACCACAUGAUGACGCCUGAAGAGCCUUGGUUUUUUG [C20U U112C]  0.258
41. GACCAAUCUGCCCUCAGAGCACGAGAACAUCUUCGGAUGCAGAGGAGGCAGGCUUCGGUGGUGCGAUAGCGCCAACGUCCUCAACCUCCAACGCAUCCCACCACAUGAUGAUGCCCGAGGAGCCUUGGUUUUUUG [U21A C62U U92C U116C A119G]  0.3
42. GACCAAUCUGCCCUCAGAGCCCGAGAACAUCUUCGGAUGCAGAGGAGGCAGGCUUCGGUGGCGCGAUAGCGCCAACGUCCUCACCCUCCAAUGCAUCCCACCACAUGAUGAUGCCUGAAGAGCGUUGGUUCUUUG [U21C A84C C124G U131C]  1.43

Reference: the RNAGym collection of RNA variant scans (doi:10.1073/pnas.2313332121)
